Test results taken from patent US11207419B2, “Cadherin-17 specific antibodies and cytotoxic cells for cancer treatment” (ARBELE LIMITED, priority 2016, dated 2021).

Legend:
GPC3 = target: T1, GPC3 (Homo sapiens, UniProt P51654); conditions: phase I study; cited from earlier work
T1 construct: host or cells: HCC patients

MHCC97-L (97L) cells = test: In vitro cell proliferation MTT assay, 97L cells; type: cell-based, human; conditions: cultured 97L cells; for growth inhibition: treatment for 2 days, MTT
Protocol: (§1) A pre-determined number of 97L and PLC cells was seeded onto 96-well culture plates for 1 day. 150 ug/ml mouse IgG (Sigma-Aldrich, St Louis, Mo., USA) as a control for Lic5. After treatment, the proliferation of treated cells was measured using Cell Proliferation Kit I (Roche, Indianapolis, Ind., USA) and as described. In brief, MTT reagent was incubated with the treated cells for 4 hours. Colorimetric signals were then measured after addition of 10% SDS. Independent cell proliferation MTT assays were performed at least twice for result confirmation.
(§2) Before treating orthotopic tumor-bearing mice with the purified Lic5, the anti-tumor effect of Lic5 alone or combined with cisplatin or epirubicin in cultured HCC cell lines in vitro was examined using cell proliferation MTT assay (FIG. 31(A)).

[1] = tested on: 97L orthotopic liver tumors; test: Animal survival study, orthotopic liver tumors; type: in vivo, nude mice; conditions: for animal survival rate: 8 mg/kg Lic5, 1 mg/kg epirubicin, intraperitoneal 3 times/week for 3 weeks, monitored till 6 weeks after treatment
Protocol: Orthotopic liver tumors were established as above using 97L cells. Orthotopic tumor-bearing mice received the following treatments intraperitoneally 3 times/week for 3 weeks (11-15 mice in each group): (1) 8 mg/kg Lic5; (2) 1 mg/kg cisplatin; (3) 1 mg/kg epirubicin; (4) combined treatment of Lic5 and cisplatin; (5) combined treatment of Lic5 and epirubicin; (6) 8 mg/kg mouse IgG as Lic5 control. Animal survival was continuously monitored till 6 weeks after treatment.
Statistical analyses were performed using SPSS version 19 (SPSS Inc., Chicago, Ill., USA). Data presented in bar chart are expressed as mean ±SD/SEM. Student's t-test was used to calculate the significance of the difference between treatment groups and control group in both cell proliferation MTT assay and animal tumor xenograft experiments. Kaplan-Meier method was employed for survival analyses, while the differences in survival were calculated using log-rank test. A p-value of less than 0.05 was considered statistically significant.

[2] = tested on: luciferase-labelled 97L orthotopic liver tumors; test: Orthotopic tumor xenograft model, tumor growth by live imaging; type: in vivo, nude mice; conditions: net photon count relative to IgG control 3 weeks after treatment; 6 mg/kg Lic5, 1 mg/kg drug, intraperitoneal 3 times/week for 3 weeks
Protocol: Animals were housed in individually ventilated cages under a 12-hour light/12-hour dark cycle and with free access to autoclaved water and chow. […] To allow in vivo viewing of the growing orthotopic liver tumors, previously established luciferase-labelled 97L cell line was used. 5×10^6 luciferase-labeled 97L cells were injected subcutaneously into nude mice to allow the growth of the subcutaneous tumors. These subcutaneous tumors were harvested when their sizes reached 200-300 mm3 and used as tumor seeds to establish orthotopic liver tumors in a separate group of nude mice following the standard procedure. […] Every week after treatment, orthotopic tumor growth and metastasis were monitored by live imaging in an IVIS 100 In Vivo Imaging System (Perkin Elmer, Waltham, Mass., USA) after intraperitoneal injection of 150 mg/kg potassium luciferin (Gold Biotechnology, St Louis, Mo., USA). For each measurement, a net photon count was obtained for each tumor. At the end of the experiment, orthotopic tumors were collected and subjected to formalin fixation and paraffin embedding.
The data shown are net photon count relative to the control IgG group obtained 3 weeks after treatment. […] Bars represent mean+SEM.

PLC/PRF/5 (PLC) cells = test: In vitro cell proliferation MTT assay, PLC cells; type: cell-based, human; conditions: for growth inhibition: cultured PLC cells, treatment for 2 days, MTT
Protocol: as §1, §2

[3] = tested on: tumor cells of HCC and GC; test: Binding of mAbs to tumor cells; type: cell-based
Source text: Tumor antigens derived from clinical samples were selected for the antibodies with specificity directed against the tumor-restricted CDH17 epitopes. […] By lowering and/or varying the antibody affinity (through computational modeling), CDH17-CAR-T cells will have enhanced differential binding to the tumor cell surface.

[4] = tested on: Oum1 human gastric cancer cells; test: Internalization by confocal microscopy; type: cell-based; conditions: Lic5-FITC, over 30 mins at 37° C.
Protocol: (§3) FIG. 18 presents photographs showing the internalization of Lic5 into human gastric cancer cells as candidate for antibody drug conjugate; (a) photographs showing the staining of DAPI (blue) and Lic5-FITC (green) at indicated times; (b) photographs showing the merged staining of DAPI (blue) and Lic5-FITC (green) at indicated times; Lic5-FITC (green) internalization in Oum1 human gastric cancer cells over 30 mins at 37° C. was determined by confocal microscopy; nucleus was stained with DAPI.
as §3, with “In another aspect, the” for “FIG. 18 presents photographs showing the”, “cells is indicative of a” for “cells as”, “drug conjugate as shown in FIG. 18;” for “drug conjugate;”

CDH17 = target: T2, CDH17 (Homo sapiens, UniProt Q12864); test: Immunoreactivity by western blot and immunohistochemistry; type: binding; conditions: western blot on 97L cell lysate, immunohistochemistry on human HCC tissue
T2 construct: A single band of about 120 kDa corresponding to the apparent molecular weight of CDH17 was detected in CDH17-expressing 97L cells; endogenous in cells; host or cells: 97L cell lysate (western blot); paraffin-embedded human HCC tissue (immunohistochemistry)
Protocol: An in-house hybridoma cell line secreting Lic5 was generated as described. Hybridoma cells were maintained in DMEM supplemented with 10% FBS and 100 units/ml penicillin and streptomycin. To collect Lic5, hybridoma cells were cultured in serum-free hybridoma-SFM (Life Technologies) for 6 days. The cultured supernatant was collected and purified using Protein G column (Life Technologies). The concentration of the purified Lic5 was estimated using RC DC Protein Assay (Bio-Rad, Hercules, Calif., USA). The purity of Lic5 was assessed by sodium dodecyl sulfate-polyacrylamide gel electrophoresis (SDS-PAGE) under reducing condition, followed by Coomassie Blue staining. Immunoreactivity and specificity of Lic5 were confirmed by western blot using 97L cell lysate and by immunohistochemistry using paraffin-embedded human HCC tissue. […]
Immunohistochemistry was performed on paraffin-embedded orthotopic tumor xenografts and human HCC specimen as described. […] Signals were detected using EnVision+System-HRP Labelled Polymer Anti-mouse (Dako, Carpinteria, Calif., USA) and visualized using Liquid DAB+Substrate Chromogen System (Dako). […]
A single band of about 120 kDa corresponding to the apparent molecular weight of CDH17 was detected in CDH17-expressing 97L cells when Lic5 was used as a primary antibody for western blot (FIG. 30(B)). […]

[5] = 2 days, compared to mouse IgG-treated cells

**Q.** For GC33: anti-GPC3 mAb developed by Chugai, which clinical response (GPC3) is on record?
**A.** no partial or complete response

**Q.** With `N.N.[Cl][Pt][Cl]` [cisplatin] as the molecule, how does the growth inhibition (MHCC97-L (97L) cells) read?
**A.** 31.6%

**Q.** And the “difference in survival compared to control group” value ([1]; log-rank test versus mouse IgG control)?
**A.** did not reach any statistically significant values

**Q.** And the xenograft growth inhibition [2]?
**A.** 48.6%

**Q.** And the growth inhibition (PLC/PRF/5 (PLC) cells)?
**A.** 37.6%

**Q.** With `COc1cccc2c1C(=O)c1c(O)c3c(c(O)c1C2=O)C[C@@](O)(C(=O)CO)C[C@@H]3O[C@H]1C[C@H](N)[C@@H](O)[C@H](C)O1` [epirubicin] as the molecule, how does the growth inhibition (MHCC97-L (97L) cells) read?
**A.** 21.9%

**Q.** And the animal survival rate [1]?
**A.** 25%

**Q.** And the xenograft growth inhibition [2]?
**A.** 37.9%

**Q.** And the growth inhibition (PLC/PRF/5 (PLC) cells)?
**A.** 8.1%

B1: Lic3: mouse monoclonal antibody against CDH17, produced using recombinant ectodomain 1-2 of CDH17 as immunogen (antibody, V domains shown)
VH: EVQLVESGGGLVKPGGSLKLSCAASGFSFSDYYMYWVRQAPEKRLEWVASISFDGTYTYYTDRVKGRFTISRDNAKNNLYLQMSSLKSEDTAMYYCARDRPAWFPYWGQGTLVTVSA
VL: DVLMTQIPLSLTVSLGDQASISCRSSQSIVHSNGNTYLEWYLQRPGQSPKLLIYKVSNRFSGVPDRFSGSGSGTDFTLKISRVEAEDLGVYYCFQGSHVPLTFGAGTKLELK
modifications: Lic3 VH; Lic3 VL
notes: mouse monoclonal antibody against CDH17, produced using recombinant ectodomain 1-2 of CDH17 as immunogen
**Q.** With B1 as the molecule, how does the “binding to tumor cells” value [3] read?
**A.** bind tumor cells of HCC and GC only

B2: Lic5: in-house mouse monoclonal antibody against CDH17, from hybridoma; VL SEQ ID NO. 29, VH SEQ ID NO. 30 (antibody, V domains shown)
VH: EVQLEESGGGLVKPGGSLKLPCAASGSSFSDFYMYWVRQTPEKRLEWVASISFDGTYTYYTDRVKGRFTISRDNAKNNLYLQMSSLKSEDTAMYYCARDRPAWFPYWGQGTLVTVSAA
VL: DIVLTQTTLSLNVSLGDQASISCRSSQSIVHSNGNTYLEWYLQRPGQSPKLLIYKVSNRFSGVPDRFSGSGSGTDFTLKISRVEAEDLGVYYCFQGSHVPLTFGAGTKLELKRA
notes: in-house mouse monoclonal antibody against CDH17, from hybridoma; 30
**Q.** With B2 as the molecule, how does the internalization into cells [4] read?
**A.** internalization

**Q.** What about the “growth of cultured cells, single treatment” value (MHCC97-L (97L) cells; [5]) of the same molecule?
**A.** inhibited the growth

**Q.** And the “binding to tumor cells” value [3]?
**A.** bind tumor cells of HCC and GC only

**Q.** And the animal survival rate [1]?
**A.** 63.6%

**Q.** What about the “immunoreactivity against CDH17” value (CDH17) of the same molecule?
**A.** high immunoreactivity against CDH17

**Q.** And the “growth of cultured cells, single treatment” value (PLC/PRF/5 (PLC) cells; [5])?
**A.** inhibited the growth
